Results from doi:10.1101/2022.06.18.496527 (2022).

Biological target: AVR-Pii effector domain (residues 20 to 70), purified (Magnaporthe oryzae)
Experiment: ITC

B1: OsExo70F2^Δ83 (residues 84 to 689) (domain or fragment)
chain: ISAAAFDAAEQLIQVWDGTPEALVFEATEDEVAEYLSAVDVAIEHLARGSGGGAGGAGSSSSSTAGRAGVAVQLAMARLEEELRHLMVRHAVPLDPTGLFFSLRRLSLGSMDDLDTSSEFDAATPHSIDVAPETARGGPLVNPFEDQVFDPVRPEAVDDLRAIADRMARAGYSRELADAYCGIRRDLLDEYLSALGVERLSIDEVQRIEWKHLNDKMKKWVQAVKTVVRVLLAGERRLCDQVLSVSDELREECFIESTKGCIMQILSFGDAVAVCPRSPEKLSRILDMYEALAEVIPEMKDLCLGSSGDGVISDVQANLDRLGDAIRGTLFEFGKVLQLESSRRAMTAGEIHPMTRYVMNYLRLLVVYSDTLDALLDDNADDQIDLARAEDQDQEHLESMTPLGKRLLKLISYLEANLEEKSKLYEDSALECIFSMNNLLYIVQKVRDSELGKILGDHWVKRRNGKIRQYSKSYLRISWMKVLSFLKDDGHGSGSGSSSGSGSGHSSSRMSIKEKFKNFNLAFEEIYRNQTTWKVPDPQLREELKISISENVIPAYRAFLGRYGSQVDGGRNSGKYIKYTPEDLESQLSDLFEGAPGPANHSRRRT
B1 was tested, and the Kd was under 1 nM.
